Assay results from article PMC11148156, “Substrate scope expansion of 4-phenol oxidases by rational enzyme selection and sequence-function relations” (Communications Chemistry, 2024).

What was measured:
NspEUGO = molecular target: T1, NspEUGO (Nocardioides sp. YR527, UniProt A0A1G9AL67); experiment: xylenol orange assay (initial rate); assay type: biochemical; conditions: 2 mM substrate, 50 mM potassium phosphate pH 7.5
T1 construct: gene SAMN05428985_103382; recombinant, expressed in E. coli; flavin-dependent; details in supplement
T1 sequence (A0A1G9AL67 1-529): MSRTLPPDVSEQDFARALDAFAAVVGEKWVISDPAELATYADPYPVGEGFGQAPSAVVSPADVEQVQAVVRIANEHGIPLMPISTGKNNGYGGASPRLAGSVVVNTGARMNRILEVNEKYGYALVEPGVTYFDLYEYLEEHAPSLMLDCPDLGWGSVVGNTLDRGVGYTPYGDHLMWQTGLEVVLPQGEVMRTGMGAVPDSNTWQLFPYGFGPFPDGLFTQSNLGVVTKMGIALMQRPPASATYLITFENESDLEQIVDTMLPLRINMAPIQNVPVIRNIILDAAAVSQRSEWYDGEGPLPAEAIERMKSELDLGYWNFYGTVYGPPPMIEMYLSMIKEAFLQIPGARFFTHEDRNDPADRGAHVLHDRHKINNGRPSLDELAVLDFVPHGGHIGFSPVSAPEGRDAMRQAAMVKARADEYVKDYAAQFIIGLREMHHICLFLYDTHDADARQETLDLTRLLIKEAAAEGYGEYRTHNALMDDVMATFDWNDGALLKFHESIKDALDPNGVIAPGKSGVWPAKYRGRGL

RjEUGO = molecular target: T2, RjEUGO (Rhodococcus jostii, UniProt Q0SBK1); experiment: xylenol orange assay (initial rate); assay type: biochemical; conditions: 2 mM substrate, 50 mM potassium phosphate pH 7.5
T2 construct: gene RHA1_ro03282; recombinant, expressed in E. coli; flavin-dependent; details in supplement
T2 sequence (Q0SBK1 1-526): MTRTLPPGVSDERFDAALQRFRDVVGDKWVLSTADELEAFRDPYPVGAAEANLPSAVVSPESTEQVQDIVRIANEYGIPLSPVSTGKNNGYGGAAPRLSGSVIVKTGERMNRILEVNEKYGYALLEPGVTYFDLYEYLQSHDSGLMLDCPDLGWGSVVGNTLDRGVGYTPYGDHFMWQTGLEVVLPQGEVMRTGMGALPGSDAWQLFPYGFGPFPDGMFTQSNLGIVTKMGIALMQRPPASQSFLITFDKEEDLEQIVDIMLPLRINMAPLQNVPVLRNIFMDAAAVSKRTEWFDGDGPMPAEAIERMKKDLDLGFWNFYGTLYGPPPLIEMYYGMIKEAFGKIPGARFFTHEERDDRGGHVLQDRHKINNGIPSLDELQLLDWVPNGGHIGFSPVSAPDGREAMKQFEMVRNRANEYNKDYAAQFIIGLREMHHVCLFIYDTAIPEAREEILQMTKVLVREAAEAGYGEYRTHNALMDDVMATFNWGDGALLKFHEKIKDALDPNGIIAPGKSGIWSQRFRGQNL

[1] = substrate: OCc1ccc(O)cc1; experiment: Michaelis-Menten kinetics; assay type: biochemical, Arthrobacter sp. UCD-GKA; conditions: pH 9.5
[2] = substrate: C=CCc1ccc(O)c(OC)c1; experiment: Michaelis-Menten kinetics; assay type: biochemical, Arthrobacter sp. UCD-GKA; conditions: optimal conditions for both enzymes (see supplement)
[3] = substrate: COc1cc(CO)ccc1O; experiment: Michaelis-Menten kinetics; assay type: biochemical, Arthrobacter sp. UCD-GKA; conditions: optimal conditions for both enzymes (see supplement)
[4] = substrate: OCc1ccc(O)cc1; experiment: Michaelis-Menten kinetics; assay type: biochemical, Geodermatophilaceae bacterium; conditions: pH 9.5
[5] = substrate: C=CCc1ccc(O)c(OC)c1; experiment: Michaelis-Menten kinetics; assay type: biochemical, Geodermatophilaceae bacterium; conditions: optimal conditions for both enzymes (see supplement)
[6] = substrate: COc1cc(CO)ccc1O; experiment: Michaelis-Menten kinetics; assay type: biochemical, Geodermatophilaceae bacterium; conditions: optimal conditions for both enzymes (see supplement)

## CCCCOCc1ccc(O)c(OC)c1 [compound 13, vanillyl butyl ether]
NspEUGO
  xylenol orange assay (initial rate): NspEUGO which is the most active wildtype enzyme on vanillyl butyl ether

## Oc1ccc(C2CCCC2)cc1 [compound 42, 4-cyclopentyl phenol]
RjEUGO
  xylenol orange assay (initial rate): RjEUGO which was the most active wildtype enzyme for 4-cyclopentyl phenol

B1: AspEUGO (Arthrobacter sp. UCD-GKA) (protein)
chain: MSRIIPLDVSEADFDAALEEFRGALGAQWVLSSPVELEAFADPYPTTNGLEFLPGAVISPSTPEEVQVIVGIANKYKVPLSPVSTGKNLGYGGAAPRLSGTVVVNTGERMNKIIEVNEKYAFALVEPGVTYFDLYNHIQEKGYNLWIDVPDLGWGSIVGNTLDRGVGYTPYGDHWSWQTGLEVVLPDGDLLRTGMGAMSGSDAWQLFPYGFGPYPDGLFSQSNYGIVTKLGIALMPAPPASETFLITFENEADLEQVIDIMLPLRIGMAPLQNVPVLRNIFMDAAAVSHRDEWHAGPGHLSDDEIKTMQRELNLGYWNLYASVYGPPPQIEMFLAMIKEAFLQVPGARFATTKDRPESPEDRGGHVLHDRHKINRGIPTIEERHLMDWVPNGGHTSFSPVSAPDGKDAMRQALMVKKRADEFGQDYAAQFIVGLREMHHICLFLYNTAVPRERDNTLAMARILVEEAADAGYGEYRTHLALMDQVMATFDYNDGALLRFHERVKDALDPNSIMAPGKSGIWGARYRDRGLELLHAPALEDSTPNSA
notes: recombinant, expressed in E. coli; flavin-dependent; details in supplement
[1]
  Km: 33 ± 2 µM
  kcat: 18 ± 1 s⁻¹
[2]
  Km: 28 ± 1 µM
  kcat: 21 ± 0.4 s⁻¹
[3]
  Km: 49 ± 3 µM
  kcat: 24 ± 0.8 s⁻¹

B2: GbEUGO (Geodermatophilaceae bacterium) (protein)
chain: MSRILPPELSDSDFDAAIARFRDVVGEKHVLTEDGDLSRYRDPYPVGGQPSGGASAAVAPETSEQVQEIVRIANEYGVPLSPISTGKNNGYGGGQPRLSGAVVVDTGLRMNRILEVNEKFGYALLEPGVSYFDLYEHLQANAPSLMLDCPDLGWGSVVGNTLDRGVGYTPYGDHLMWQTGLEVVLPTGDVMRTGMGAVPGSNAWQLFPYGFGPFPDGLFTQSNLGIVTKMGIALMQRPPASETFVISFDREEDLEQVVDIMLPLRINMAPLQNVPVLRNIILDAGVVSKRTEWHDGDGPLPPEAISRMKAELGLGYWNLYGTVYGPPPVLEAHLGIIKDAFLQVPGSRFATTQDRDEATDRGAHVLHDRHRINNGIPSLDEMKLMEFVPNGGHIGFSPVSAPDGADALRQSQMVRRRADEYRKDYAAQFIVGLREMHHIGLFLFDTTDAVARQETLDLARVLIDEAAAAGYGEYRTHNALMDQVMGTYNWGGDALLKFHETIKDALDPNSVMAPGKSGIWGRKYRDRALA
notes: as for B1
[4]
  Km: 455 ± 50 µM
  kcat: 18 ± 1 s⁻¹
[5]
  Km: 23 ± 1 µM
  kcat: 23 ± 0.2 s⁻¹
[6]
  Km: 31 ± 1 µM
  kcat: 16 ± 0.4 s⁻¹
